Reference: article PMC2172085

Molecular target: YFP-hDcp2 (human), Q8IU60
Assay: FRET or BRET
Settings: remark: other sources report otherwise

apparent FRET efficiency (one experiment, foci in the bleached region): 17% | average apparent FRET efficiency: 15%
B1: CFP-hDcp1a, Q9NPI6 1-582 (natural protein)
chain: MEALSRAGQEMSLAALKQHDPYITSIADLTGQVALYTFCPKANQWEKTDIEGTLFVYRRSASPYHGFTIVNRLNMHNLVEPVNKDLEFQLHEPFLLYRNASLSIYSIWFYDKNDCHRIAKLMADVVEEETRRSQQAARDKQSPSQANGCSDHRPIDILEMLSRAKDEYERNQMGDSNISSPGLQPSTQLSNLGSTETLEEMPSGSQDKSAPSGHKHLTVEELFGTSLPKEQPAVVGLDSEEMERLPGDASQKEPNSFLPFPFEQLGGAPQSETLGVPSAAHHSVQPEITTPVLITPASITQSNEKHAPTYTIPLSPVLSPTLPAEAPTAQVPPSLPRNSTMMQAVKTTPRQRSPLLNQPVPELSHASLIANQSPFRAPLNVTNTAGTSLPSVDLLQKLRLTPQHDQIQTQPLGKGAMVASFSPAAGQLATPESFIEPPSKTAAARVAASASLSNMVLAPLQSMQQNQDPEVFVQPKVLSSAIPVAGAPLVTATTTAVSSVLLAPSVFQQTVTRSSDLERKASSPSPLTIGTPESQRKPSIILSKSQLQDTLIHLIKNDSSFLSTLHEVYLQVLTKNKDNHNL
